Reference: US20050049193A1

Biological target: OB-Rb, full-length (long isoform) leptin receptor expressed on transfected GT1-7 cells (mouse), P48356
Assay: cell-based or functional assay

Chain of OB-Rb, full-length (long isoform) leptin receptor expressed on transfected GT1-7 cells (mouse), P48356 (P48356 22-1162): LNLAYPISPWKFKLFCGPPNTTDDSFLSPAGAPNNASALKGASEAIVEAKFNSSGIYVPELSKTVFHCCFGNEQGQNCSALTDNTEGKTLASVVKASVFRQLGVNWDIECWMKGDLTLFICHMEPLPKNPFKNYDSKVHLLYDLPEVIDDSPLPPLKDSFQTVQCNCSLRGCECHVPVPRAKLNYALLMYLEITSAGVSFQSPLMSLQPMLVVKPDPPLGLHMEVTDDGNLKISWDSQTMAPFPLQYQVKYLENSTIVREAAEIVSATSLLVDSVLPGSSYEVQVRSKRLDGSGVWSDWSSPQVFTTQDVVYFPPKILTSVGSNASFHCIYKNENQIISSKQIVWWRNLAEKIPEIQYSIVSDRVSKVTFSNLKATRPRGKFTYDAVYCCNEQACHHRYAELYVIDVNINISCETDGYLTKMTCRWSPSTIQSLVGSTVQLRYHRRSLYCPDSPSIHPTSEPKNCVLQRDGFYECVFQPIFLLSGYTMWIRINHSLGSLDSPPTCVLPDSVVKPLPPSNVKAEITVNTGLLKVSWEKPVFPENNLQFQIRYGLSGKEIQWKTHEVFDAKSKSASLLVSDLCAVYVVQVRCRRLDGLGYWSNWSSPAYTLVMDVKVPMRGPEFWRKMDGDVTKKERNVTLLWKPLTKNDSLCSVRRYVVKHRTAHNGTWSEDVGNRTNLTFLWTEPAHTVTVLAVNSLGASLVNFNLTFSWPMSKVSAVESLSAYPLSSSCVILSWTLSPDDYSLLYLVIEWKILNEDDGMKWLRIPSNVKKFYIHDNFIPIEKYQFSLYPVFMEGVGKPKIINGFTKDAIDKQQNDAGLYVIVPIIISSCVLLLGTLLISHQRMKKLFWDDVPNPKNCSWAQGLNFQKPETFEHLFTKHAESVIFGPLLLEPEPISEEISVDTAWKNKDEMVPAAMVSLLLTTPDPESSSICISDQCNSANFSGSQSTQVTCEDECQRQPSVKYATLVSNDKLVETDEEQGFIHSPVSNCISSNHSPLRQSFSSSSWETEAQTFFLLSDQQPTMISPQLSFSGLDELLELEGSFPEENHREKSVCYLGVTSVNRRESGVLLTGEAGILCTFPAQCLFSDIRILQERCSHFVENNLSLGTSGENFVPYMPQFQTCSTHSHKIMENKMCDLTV

- SEAP activity (HRRE-SEAP reporter in GT1-7 cells): 11 fold
B1: recombinant mouse leptin, P41160 22-167 (ligand)
chain: VPIQKVQDDTKTLIKTIVTRINDISHTQSVSAKQRVTGLDFIPGLHPILSLSKMDQTLAVYQQVLTSLPSQNVLQIANDLENLRDLLHLLAFSKSCSLPQTSGLQKPESLDGVLEASLYSTEVVALSRLQGSLQDILQQLDVSPEC
